Assay results: patent WO2005054294A2 (dated 2005)

Target: T1, human platelet glycoprotein VI (human, UniProt Q9HCN6 21-339)
T1 sequence (looked up): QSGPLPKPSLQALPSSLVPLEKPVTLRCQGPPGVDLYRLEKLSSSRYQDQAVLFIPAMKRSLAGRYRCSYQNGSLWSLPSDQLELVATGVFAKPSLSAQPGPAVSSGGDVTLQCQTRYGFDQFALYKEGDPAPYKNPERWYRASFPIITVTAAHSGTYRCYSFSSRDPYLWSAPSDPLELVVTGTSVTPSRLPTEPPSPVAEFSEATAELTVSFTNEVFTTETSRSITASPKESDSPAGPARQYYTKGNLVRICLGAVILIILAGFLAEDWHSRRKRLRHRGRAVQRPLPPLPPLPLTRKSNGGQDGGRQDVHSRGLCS
Test: cell-based or functional assay

B1: hGP 5C4 Fab (Fab, V domains shown)
VH: EVKLQESGGGLVQPGRSLKLSCTASGFTFSDYFMSWVRQAPTRGLEWVASISSGGASAYWRDSVKGRFTISRDNAKSALYLQMDSLRSEDTATYFCARGELDFDYWGQGVMVAVSS
VL: ADPNSTLLSASVGDRVTLNCTASQNVYKNLAWYQQKLGEAPRLLLYSANSQTGIPSRFSGSGSGPDFTLTISSLQPEDVASYFCQQYYSGNTFGAGTKLELKR
  IC50 of inhibition of collagen-induced (3 ug/ml) human platelet aggregation ex vivo: 0.12 µg/mL
